Source: the supplement of paper PMC11780869

System: Bacillus subtilis
Experiment: cleaved RNA product abundance (RNA/gDNA barcode ratio) relative to median wild-type variant (ratio to wild type); higher = more accumulation of the downstream cleavage product
Procedure, shortened: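 Cleaved product abundance is expressed as the RNA:gDNA barcode ratio per construct, scaled to the median construct carrying the unmutated site. The constructs were barcoded, mutagenized RNase Y cleavage-site windows in truncated aprE or tetM reporter mRNAs integrated into the B. subtilis chromosome. Cultures grew in LB at 37°C from OD600 0.0003 to 0.3 before cleaved RNA was gel-selected and barcode-sequenced.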

[1] = experiment (reporter, strain, medium): exp 4a: truncated aprE reporter, strain BJT201 with 2% xylose (RNase J1 expressed), cleavage site: cggR-gapA (positions -7 to +36 mutated)
[2] = experiment (reporter, strain, medium): exp 2b: truncated aprE reporter, strain BJT200, cleavage site: cggR-gapA (positions -7 to +36 mutated)
[3] = experiment (reporter, strain, medium): exp 8a: truncated aprE reporter, strain BJT201 with 2% xylose (RNase J1 expressed), cleavage site: glnRA (positions -5 to +31 mutated)

Sequence	cleaved RNA product abundance [1]	cleaved RNA product abundance [2]	cleaved RNA product abundance [3]
ACAGACGAAGGAGCCGCAAAGAAGTTATTAAGGGACGAATAATCCCTCAATATAAATCTCTCTCACTTATTTAAA	0.53		
ACAGACGAAGGAGCCGCAAAGAAGCTATTAAGGGATGAATAATACCTCAATATAAATATCTCTCACTTATTTAAA		0.0928	
CGACATGTCCCGCTTCTTTCATTACTCCGTTAGCAACTGTTTTGCTTTATACATATACCTTTTAAGAGGAGGAAT			0.58
ACAGACGAAGGAGCCGCAAACAAGTTATTAAGGGATGAATAATCTCTCAATATAAATATCTCTCACTTATTTAAA	0.573	0.529	
CGACATGTCCCGCTTCTTTCATTACTCCGTTAGCAACTGTTTTGCCATATACATTTACCTTTTAAGAGGAGGAAT			0.246
CGACATGTCCCGCTTCTTTCATTATTCCGTTAGCAACTTTTTTGCTATATACATTTACCTTTTAAGAGGAGGAAT			2.24
ACAGACGAAGGAGCCGCAAAGAAGTTATTAAGGGATGAATAATCCTTCAATATAATTATCTCTCACTTATTTAAA	0.387	0.219	
ACAGACGAAGGAGCCGCAATGAAGTTATTAAGGGATGAAAAATCCCTCAATATAAATATCTCTCACTTATTTAAA	0.548		
ACAGACGAAGGAGCCGCAAAGAAGTTATTAAGGAATGAATACTCCCTCAATATAAATATCTCTCACTTATTTAAA	0.106	0.116	
CGACATGTCCCGCTTCTTTCATTAATCCGTTAGCAACAGTTTTGCTATATACATTTACCTTTTAAGAGGAGGAAT			0.814
ACAGACGAAGGAGCCGCAAAGAAGTTATCAAGGGATGAATAATCCCTCAAAATAAATATCTCTCACTTATTTAAA	0.289	0.2	
ACAGACGAAGGAGCCGCAAAAAAGTTATTAAGGGATGAATAATCCCTCAATATAAAAATCTCTCACTTATTTAAA	0.82	1.08	
ACAGACGAAGGAGCCGCAAAGATGTTATTAAGGGATGAATAATCCCTCAACATAAATATCTCTCACTTATTTAAA	0.223		
ACAGACGAAGGAGCCGCAAAGAAGTTATTAAGGAATGAATCATCCCTCAATATAAATATCTCTCACTTATTTAAA	0.151		
CGACATGTCCCGCTTCTTTCATTATTCCGTTAGCAACTGTTTTGCTATATTCATTTACCTTTTAAGAGGAGGAAT			0.669
CGACATGTCCCGCTTCTTTCATTAATCCATTATCAACTGTTTTGCTATATACATTTACCTTTTAAGAGGAGGAAT			0.224
CGACATGTCCCGCTTCTTTCATTAATCCGTTAGTAACTGTTTTGCTATAAACATTTACCTTTTAAGAGGAGGAAT			0.389
ACAGACGAAGGAGCCGCAAAGAAGGTATTAAGGGATGAATAATCCCACAATATAAATATCTCTCACTTATTTAAA		0.314	
ACAGACGAAGGAGCCGCAAAGAAGTTATTAAGGGATGACTAAACCCTCAATATAAATATCTCTCACTTATTTAAA	0.303	0.197	
ACAGACGAAGGAGCCGCAAAGAAGTTAATAAGGGACGAATAATCCCTCAATATAAATATCTCTCACTTATTTAAA	0.164	0.154	
ACAGACGAAGGAGCCGCAAAGACGTTATTAAGGGATGAATAATCCCTCAATATAGATATCTCTCACTTATTTAAA	0.456		
ACAGACGAAGGAGCCGCAAAGAAGCTATTAAGGGATGAATAATTCCTCAATATAAATATCTCTCACTTATTTAAA		0.432	
ACAGACGAAGGAGCCGCAAAGAAGCTATTAAGGGATGAATAATCCCTTAATATAAATATCTCTCACTTATTTAAA	0.827		
CGACATGTCCCGCTTCTTTCATTAATTCGTTTGCAACTGTTTTGCTATATACATTTACCTTTTAAGAGGAGGAAT			0.815

Sequence	cleaved RNA product abundance [1]	cleaved RNA product abundance [2]	cleaved RNA product abundance [3]
CGACATGTCCCGCTTCTTTCATTAATACGTTAGAAACTGTTTTGCTATATACATTTACCTTTTAAGAGGAGGAAT			0.292
CGACATGTCCCGCTTCTTTCATTAATCCGTTGGCAACTATTTTGCTATATACATTTACCTTTTAAGAGGAGGAAT			0.866
ACAGACGAAGGAGCCGCAAACAAGTTATAAAAGGATGAATAATCCCTCAATATAAATATCTCTCACTTATTTAAA		0.139	
CGACATGTCCCGCTTCTTTCATTAATACGTTAGCAACTGTTTTGCCATATACATTTACCTTTTAAGAGGAGGAAT			0.23
ACAGACGAAGGAGCCGCCAAGAAGTTATTAAGTGATGAATAATCCCTCAATATAAATATCTCTCACTTATTTAAA	0.146		
ACAGACGAAGGAGCCGCAAAGAAGTTATTAAAGGATGAATATTCCCTAAATATAAATATCTCTCACTTATTTAAA		0.0923	
ACAGACGAAGGAGCCGCAAAGAAGTTATGAAGGGATGAATAATCCATCAATATAAATATCTCTCACTTATTTAAA		0.185	
ACAGACGAAGGAGCCGCAAAGAAGTTATTAAGGGATGAATAATCCGTCAATATAGATATCTCTCACTTATTTAAA	0.314		
ACAGACGAAGGAGCCGCAAAGAAGTTAATAAGTGATGAATAATCCCTCAATATAAATATCTCTCACTTATTTAAA	0.129	0.167	
ACAGACGAAGGAGCCGCAAAGAAGTTATTTAGGGATGAACAATCCCTCAATATAAATATCTCTCACTTATTTAAA	0.85		
CGACATGTCCCGCTTCTTTCATTAATCCGTTAACAACTGTCTTGCTATATACATTTACCTTTTAAGAGGAGGAAT			0.0713
ACAGACGAAGGAGCCGCAAAGAAGTTATTAAGGAATAAATAATCCCTCAATACAAATATCTCTCACTTATTTAAA	0.0573		
CGACATGTCCCGCTTCTTTCATTAATAGGTTAGCAACTGTTTTGCTATATACATTTACCTTTTAAGAGGAGGAAT			0.766
ACAGACGAAGGAGCCGCAAAGAAGTTAATAAGGGATGAATAATCCCTCAATATAAATACCTCTCACTTATTTAAA	0.201		
CGACATGTCCCGCTTCTTTCATTAATCCGTTAGTAACTGTTTAGCTATATACATTTACCTTTTAAGAGGAGGAAT			0.463
CGACATGTCCCGCTTCTTTCATTAATCCGTTAGCAACTGTTTAGCCATATACATTTACCTTTTAAGAGGAGGAAT			0.259
ACAGACGAAGGAGCCGCAAAGAAGTTATTTATGGATGAATAATCCCTCAATATAAATATCTCTCACTTATTTAAA	0.165		
CGACATGTCCCGCTTCTTTCATTATTCCGTTAGAAACTGTTTTGCTATATACATTTACCTTTTAAGAGGAGGAAT			0.309
CGACATGTCCCGCTTCTTTCATTAATCCGTTAGCAACTGTTTAGCTATATACATTTATCTTTTAAGAGGAGGAAT			0.572
ACAGACGAAGGAGCCGCAAAGAAGTTATAAAGGGATGAATAATCCCTCAATATAATTATCTCTCACTTATTTAAA	0.171		
ACAGACGAAGGAGCCGCAAAGAAGTTATTAAGGGATGAATATTCCATCAATATAAATATCTCTCACTTATTTAAA	0.312	0.141	
ACAGACGAAGGAGCCGCAAAGAAGTTATTAAGGGATGTATAATCCATCAATATAAATATCTCTCACTTATTTAAA	0.238	0.175	
ACAGACGAAGGAGCCGCAAAGAAGTTATTAAGGCGTGAATAATCCCTCAATATAAATATCTCTCACTTATTTAAA	0.116	0.097	
